This experiment has as its target Replication protein A (Saccharomyces cerevisiae RPA) (S. cerevisiae, UniProt P22336;P26754;P26755). Description: AUC.

Replication protein A (Saccharomyces cerevisiae RPA), sequence (P22336 whole entry, chain 1 of 3): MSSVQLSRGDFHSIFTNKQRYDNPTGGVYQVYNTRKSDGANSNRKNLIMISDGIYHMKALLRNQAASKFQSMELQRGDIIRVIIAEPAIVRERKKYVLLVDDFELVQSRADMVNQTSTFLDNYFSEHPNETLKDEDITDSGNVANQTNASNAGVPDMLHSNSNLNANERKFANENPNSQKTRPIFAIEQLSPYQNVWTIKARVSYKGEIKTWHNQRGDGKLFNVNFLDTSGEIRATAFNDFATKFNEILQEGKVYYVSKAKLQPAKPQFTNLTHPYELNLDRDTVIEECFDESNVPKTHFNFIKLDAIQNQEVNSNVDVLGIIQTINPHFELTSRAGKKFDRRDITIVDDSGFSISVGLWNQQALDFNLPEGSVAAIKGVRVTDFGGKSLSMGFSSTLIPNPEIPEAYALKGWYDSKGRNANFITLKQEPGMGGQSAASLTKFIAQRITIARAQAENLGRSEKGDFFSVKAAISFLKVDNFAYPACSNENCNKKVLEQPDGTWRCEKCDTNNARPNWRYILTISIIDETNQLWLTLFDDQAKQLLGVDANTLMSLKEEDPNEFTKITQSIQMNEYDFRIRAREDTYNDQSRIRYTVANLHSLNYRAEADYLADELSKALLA
Replication protein A (Saccharomyces cerevisiae RPA), sequence (P26754 whole entry, chain 2 of 3): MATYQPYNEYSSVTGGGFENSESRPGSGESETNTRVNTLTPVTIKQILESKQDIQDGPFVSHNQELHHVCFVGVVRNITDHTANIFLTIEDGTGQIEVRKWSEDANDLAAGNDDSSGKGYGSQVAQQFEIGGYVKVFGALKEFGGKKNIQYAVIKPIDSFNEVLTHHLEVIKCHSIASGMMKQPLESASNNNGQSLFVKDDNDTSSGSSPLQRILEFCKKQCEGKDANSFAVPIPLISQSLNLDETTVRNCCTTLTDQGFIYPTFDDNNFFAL
Replication protein A (Saccharomyces cerevisiae RPA), sequence (P26755 whole entry, chain 3 of 3): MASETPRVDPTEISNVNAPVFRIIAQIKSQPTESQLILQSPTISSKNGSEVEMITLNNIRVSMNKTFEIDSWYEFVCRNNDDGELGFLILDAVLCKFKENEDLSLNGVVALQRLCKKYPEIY

B1: Rtt105^Cy5 (natural protein)
chain: MYSNHNLNSDDCSFDWNEEKAAELQRTGVSFDRSLTPQSLRTSTRRLSEENKQQSGTMHIDTSPSVVSDIISSRRDRSQDFFGPHSSSPIAPSERQRADQRSRLESMRLTRRRDKMTKVRGGLEKMEEMIMQGEHLREMQRLKQEAQKNALPSDMAEYMEWQNNEDLEDDELLAFIEKQETYKNELEHFLNNANKNVYENNSYPNSHT
modifications: Cy5 (maleimide) on Cys-12
As to B1, the binding result is given as “binds”.

These data come from article doi:10.1101/2022.02.05.479199 (bioRxiv, 2022).
